B1: I729W: TP-DNAP1 variant (protein)
chain: MDYKDKALNDLRNVYADFDSLPLDFRQILIKDRATLLQKEDVEKKILERQEDAKKYAEYLKQSEIPERISLPNIKRHKGVSISFEETSEDMVLEPRPFIFDGLNIRCFRRETIFSLKNKILNMVKESSSFKNVSRQSVSFMYFKIFNKGKVIASTKSVNIYEDKIDERLEDLCNNFDDVLKKIIDVTYGYESLFVSETYSYVIFYAKSIYFPQPRCVNNWGNNIPNILTFDSFKLFTANKNNVSCIKQCSRFLWQKDFNTLEEMIEYKNGNICIVTPQLHINDVRDIKSFNDIRLYSESPIKTFSVIDNTITYLFYFKEHLGVIFNITKSRHDRRVTKFSPLSKFSDVKNITVCFDIESYFDPEKESNQVNIPFICCASIIYNKVIGNIVDFEGRDCVAQMIEYVVDICGELNISSVELIAHNGGGYDFHYILSSMYNPAAIKNILIRNNSFISFNFAHDGVKFSVKDSYSFLLCSLANASKAFLNEETFKKTDFPHHDLKTADDLYKVYKEWSSVNTEINHVVEKEKLLITSEHIVNFTKNDKSKTLIEWSKDYCRNDVLVLSKVWLEFKNAVEDIFNCELVDQTMTLAGLSYKLFQANMPFDVELRHPNKEDYFNMREALIGGRCISVNGIYKDVLCLDVKSLYPASMAFYDQPYGSFKRVSSRPKDELGIYYVRVTPNRNNKSNFFPIRSHNKITYNNFEESTYIAWYTNVDIDIGLSEGHNIEYWPFDSYGNIGYSWSKKGKIFEKYIKDVLYKLKIKYEKQNNKVKRNVIKIIMNSLWGKFAQKWVNFEYFIKSEDDIDFESEEAYKIWDTDFMLIKKIKESTYSSKPIQNGVFTLSWARYHMKSIWDAGAKEGAECIYSDTDSIFVHKEHFKKNAKFMLNGLKVPIIGSEVGQLELECEFDKLLCAGKKQYMGFYTYFQDGKPCIKEKKRFKGIPSNYIIPELYAHLLSGADKEAKIQFLKFRREWGSVKGYIENKTVKAT
B2: S733R: TP-DNAP1 variant (protein)
chain: MDYKDKALNDLRNVYADFDSLPLDFRQILIKDRATLLQKEDVEKKILERQEDAKKYAEYLKQSEIPERISLPNIKRHKGVSISFEETSEDMVLEPRPFIFDGLNIRCFRRETIFSLKNKILNMVKESSSFKNVSRQSVSFMYFKIFNKGKVIASTKSVNIYEDKIDERLEDLCNNFDDVLKKIIDVTYGYESLFVSETYSYVIFYAKSIYFPQPRCVNNWGNNIPNILTFDSFKLFTANKNNVSCIKQCSRFLWQKDFNTLEEMIEYKNGNICIVTPQLHINDVRDIKSFNDIRLYSESPIKTFSVIDNTITYLFYFKEHLGVIFNITKSRHDRRVTKFSPLSKFSDVKNITVCFDIESYFDPEKESNQVNIPFICCASIIYNKVIGNIVDFEGRDCVAQMIEYVVDICGELNISSVELIAHNGGGYDFHYILSSMYNPAAIKNILIRNNSFISFNFAHDGVKFSVKDSYSFLLCSLANASKAFLNEETFKKTDFPHHDLKTADDLYKVYKEWSSVNTEINHVVEKEKLLITSEHIVNFTKNDKSKTLIEWSKDYCRNDVLVLSKVWLEFKNAVEDIFNCELVDQTMTLAGLSYKLFQANMPFDVELRHPNKEDYFNMREALIGGRCISVNGIYKDVLCLDVKSLYPASMAFYDQPYGSFKRVSSRPKDELGIYYVRVTPNRNNKSNFFPIRSHNKITYNNFEESTYIAWYTNVDIDIGLSEGHNIEYIPFDRYGNIGYSWSKKGKIFEKYIKDVLYKLKIKYEKQNNKVKRNVIKIIMNSLWGKFAQKWVNFEYFIKSEDDIDFESEEAYKIWDTDFMLIKKIKESTYSSKPIQNGVFTLSWARYHMKSIWDAGAKEGAECIYSDTDSIFVHKEHFKKNAKFMLNGLKVPIIGSEVGQLELECEFDKLLCAGKKQYMGFYTYFQDGKPCIKEKKRFKGIPSNYIIPELYAHLLSGADKEAKIQFLKFRREWGSVKGYIENKTVKAT
B3: S733E: TP-DNAP1 variant (protein)
chain: MDYKDKALNDLRNVYADFDSLPLDFRQILIKDRATLLQKEDVEKKILERQEDAKKYAEYLKQSEIPERISLPNIKRHKGVSISFEETSEDMVLEPRPFIFDGLNIRCFRRETIFSLKNKILNMVKESSSFKNVSRQSVSFMYFKIFNKGKVIASTKSVNIYEDKIDERLEDLCNNFDDVLKKIIDVTYGYESLFVSETYSYVIFYAKSIYFPQPRCVNNWGNNIPNILTFDSFKLFTANKNNVSCIKQCSRFLWQKDFNTLEEMIEYKNGNICIVTPQLHINDVRDIKSFNDIRLYSESPIKTFSVIDNTITYLFYFKEHLGVIFNITKSRHDRRVTKFSPLSKFSDVKNITVCFDIESYFDPEKESNQVNIPFICCASIIYNKVIGNIVDFEGRDCVAQMIEYVVDICGELNISSVELIAHNGGGYDFHYILSSMYNPAAIKNILIRNNSFISFNFAHDGVKFSVKDSYSFLLCSLANASKAFLNEETFKKTDFPHHDLKTADDLYKVYKEWSSVNTEINHVVEKEKLLITSEHIVNFTKNDKSKTLIEWSKDYCRNDVLVLSKVWLEFKNAVEDIFNCELVDQTMTLAGLSYKLFQANMPFDVELRHPNKEDYFNMREALIGGRCISVNGIYKDVLCLDVKSLYPASMAFYDQPYGSFKRVSSRPKDELGIYYVRVTPNRNNKSNFFPIRSHNKITYNNFEESTYIAWYTNVDIDIGLSEGHNIEYIPFDEYGNIGYSWSKKGKIFEKYIKDVLYKLKIKYEKQNNKVKRNVIKIIMNSLWGKFAQKWVNFEYFIKSEDDIDFESEEAYKIWDTDFMLIKKIKESTYSSKPIQNGVFTLSWARYHMKSIWDAGAKEGAECIYSDTDSIFVHKEHFKKNAKFMLNGLKVPIIGSEVGQLELECEFDKLLCAGKKQYMGFYTYFQDGKPCIKEKKRFKGIPSNYIIPELYAHLLSGADKEAKIQFLKFRREWGSVKGYIENKTVKAT
B4: S733N: TP-DNAP1 variant (protein)
chain: MDYKDKALNDLRNVYADFDSLPLDFRQILIKDRATLLQKEDVEKKILERQEDAKKYAEYLKQSEIPERISLPNIKRHKGVSISFEETSEDMVLEPRPFIFDGLNIRCFRRETIFSLKNKILNMVKESSSFKNVSRQSVSFMYFKIFNKGKVIASTKSVNIYEDKIDERLEDLCNNFDDVLKKIIDVTYGYESLFVSETYSYVIFYAKSIYFPQPRCVNNWGNNIPNILTFDSFKLFTANKNNVSCIKQCSRFLWQKDFNTLEEMIEYKNGNICIVTPQLHINDVRDIKSFNDIRLYSESPIKTFSVIDNTITYLFYFKEHLGVIFNITKSRHDRRVTKFSPLSKFSDVKNITVCFDIESYFDPEKESNQVNIPFICCASIIYNKVIGNIVDFEGRDCVAQMIEYVVDICGELNISSVELIAHNGGGYDFHYILSSMYNPAAIKNILIRNNSFISFNFAHDGVKFSVKDSYSFLLCSLANASKAFLNEETFKKTDFPHHDLKTADDLYKVYKEWSSVNTEINHVVEKEKLLITSEHIVNFTKNDKSKTLIEWSKDYCRNDVLVLSKVWLEFKNAVEDIFNCELVDQTMTLAGLSYKLFQANMPFDVELRHPNKEDYFNMREALIGGRCISVNGIYKDVLCLDVKSLYPASMAFYDQPYGSFKRVSSRPKDELGIYYVRVTPNRNNKSNFFPIRSHNKITYNNFEESTYIAWYTNVDIDIGLSEGHNIEYIPFDNYGNIGYSWSKKGKIFEKYIKDVLYKLKIKYEKQNNKVKRNVIKIIMNSLWGKFAQKWVNFEYFIKSEDDIDFESEEAYKIWDTDFMLIKKIKESTYSSKPIQNGVFTLSWARYHMKSIWDAGAKEGAECIYSDTDSIFVHKEHFKKNAKFMLNGLKVPIIGSEVGQLELECEFDKLLCAGKKQYMGFYTYFQDGKPCIKEKKRFKGIPSNYIIPELYAHLLSGADKEAKIQFLKFRREWGSVKGYIENKTVKAT
B5: I729V: TP-DNAP1 variant (protein)
chain: MDYKDKALNDLRNVYADFDSLPLDFRQILIKDRATLLQKEDVEKKILERQEDAKKYAEYLKQSEIPERISLPNIKRHKGVSISFEETSEDMVLEPRPFIFDGLNIRCFRRETIFSLKNKILNMVKESSSFKNVSRQSVSFMYFKIFNKGKVIASTKSVNIYEDKIDERLEDLCNNFDDVLKKIIDVTYGYESLFVSETYSYVIFYAKSIYFPQPRCVNNWGNNIPNILTFDSFKLFTANKNNVSCIKQCSRFLWQKDFNTLEEMIEYKNGNICIVTPQLHINDVRDIKSFNDIRLYSESPIKTFSVIDNTITYLFYFKEHLGVIFNITKSRHDRRVTKFSPLSKFSDVKNITVCFDIESYFDPEKESNQVNIPFICCASIIYNKVIGNIVDFEGRDCVAQMIEYVVDICGELNISSVELIAHNGGGYDFHYILSSMYNPAAIKNILIRNNSFISFNFAHDGVKFSVKDSYSFLLCSLANASKAFLNEETFKKTDFPHHDLKTADDLYKVYKEWSSVNTEINHVVEKEKLLITSEHIVNFTKNDKSKTLIEWSKDYCRNDVLVLSKVWLEFKNAVEDIFNCELVDQTMTLAGLSYKLFQANMPFDVELRHPNKEDYFNMREALIGGRCISVNGIYKDVLCLDVKSLYPASMAFYDQPYGSFKRVSSRPKDELGIYYVRVTPNRNNKSNFFPIRSHNKITYNNFEESTYIAWYTNVDIDIGLSEGHNIEYVPFDSYGNIGYSWSKKGKIFEKYIKDVLYKLKIKYEKQNNKVKRNVIKIIMNSLWGKFAQKWVNFEYFIKSEDDIDFESEEAYKIWDTDFMLIKKIKESTYSSKPIQNGVFTLSWARYHMKSIWDAGAKEGAECIYSDTDSIFVHKEHFKKNAKFMLNGLKVPIIGSEVGQLELECEFDKLLCAGKKQYMGFYTYFQDGKPCIKEKKRFKGIPSNYIIPELYAHLLSGADKEAKIQFLKFRREWGSVKGYIENKTVKAT
B6: E298F: TP-DNAP1 variant (protein)
chain: MDYKDKALNDLRNVYADFDSLPLDFRQILIKDRATLLQKEDVEKKILERQEDAKKYAEYLKQSEIPERISLPNIKRHKGVSISFEETSEDMVLEPRPFIFDGLNIRCFRRETIFSLKNKILNMVKESSSFKNVSRQSVSFMYFKIFNKGKVIASTKSVNIYEDKIDERLEDLCNNFDDVLKKIIDVTYGYESLFVSETYSYVIFYAKSIYFPQPRCVNNWGNNIPNILTFDSFKLFTANKNNVSCIKQCSRFLWQKDFNTLEEMIEYKNGNICIVTPQLHINDVRDIKSFNDIRLYSFSPIKTFSVIDNTITYLFYFKEHLGVIFNITKSRHDRRVTKFSPLSKFSDVKNITVCFDIESYFDPEKESNQVNIPFICCASIIYNKVIGNIVDFEGRDCVAQMIEYVVDICGELNISSVELIAHNGGGYDFHYILSSMYNPAAIKNILIRNNSFISFNFAHDGVKFSVKDSYSFLLCSLANASKAFLNEETFKKTDFPHHDLKTADDLYKVYKEWSSVNTEINHVVEKEKLLITSEHIVNFTKNDKSKTLIEWSKDYCRNDVLVLSKVWLEFKNAVEDIFNCELVDQTMTLAGLSYKLFQANMPFDVELRHPNKEDYFNMREALIGGRCISVNGIYKDVLCLDVKSLYPASMAFYDQPYGSFKRVSSRPKDELGIYYVRVTPNRNNKSNFFPIRSHNKITYNNFEESTYIAWYTNVDIDIGLSEGHNIEYIPFDSYGNIGYSWSKKGKIFEKYIKDVLYKLKIKYEKQNNKVKRNVIKIIMNSLWGKFAQKWVNFEYFIKSEDDIDFESEEAYKIWDTDFMLIKKIKESTYSSKPIQNGVFTLSWARYHMKSIWDAGAKEGAECIYSDTDSIFVHKEHFKKNAKFMLNGLKVPIIGSEVGQLELECEFDKLLCAGKKQYMGFYTYFQDGKPCIKEKKRFKGIPSNYIIPELYAHLLSGADKEAKIQFLKFRREWGSVKGYIENKTVKAT

The subject of the assay is p1. The experiment in a line: p1 copy number by p1-encoded mKate2 fluorescence. The format is cell-based, S. cerevisiae. The following applies: OR-Y24, measured in triplicate. The method, boiled down: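 p1 copy number came from mKate2 fluorescence of saturated OR-Y24 cultures (triplicates, regrown from 1:10,000), read by flow cytometry and converted through a linear curve calibrated by qPCR (LEU2 against genomic LEU3). For small-scale tests, OD600-normalized plate-reader fluorescence (588/633 nm) was scaled to a w.t. TP-DNAP1 control.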
With B1, the “Mean fold-increase over w.t. (p1 copy number)” value (“Mean fold-increase” below) is given as 1.97 fold.

Turning to B2, the “Mean fold-increase” value is on record as 1.98 fold. With B3, the “Mean fold-increase” value amounted to 2.06 fold. As for B4, the “Mean fold-increase” value is 1.86 fold. For the molecule B5, the “Mean fold-increase” value is reported as 1.87 fold. Turning to B6, the “Mean fold-increase” value was 1.74 fold.

The record behind these values is US20230242902A1, “A HIGHLY ERROR-PRONE […] R[…] FOR TARGETED CONTINUOUS EVOLUTION IN VIVO” (The Regents of the University of California, priority 2017, published 2023).
